For assay [1], the target named is T1, rhesus rotavirus (RRV) VP4 hydrophobic-loop mutant V391D, recombinant (rhesus rotavirus (RRV; G3 serotype), UniProt P12473 1-776, V391D).
T1 construct: VP4 of rhesus rotavirus (RRV; G3 serotype) with V391D in a hydrophobic loop of VP5*; also called V391D VP4; VP4 fusion-loop mutant; source: baculovirus-infected insect cells, purified (AmSO4 precipitation, Phenyl HP, HiTrap Q, S200)
Briefly: co-sedimentation; recoating: VP4 added to purified DLPs in at least 5-fold excess at pH 5.2 (sodium acetate), 1.5 h at room temperature; then VP7 in at least 3-fold molar excess with calcium, 30 min; recoated particles separated from excess components by cesium chloride gradient centrifugation; SDS-PAGE and fluorescence imaging of the purified particles. The settings on record: both partners purified.

Assay [2] addresses T2, rhesus rotavirus (RRV) outer-layer protein VP4, recombinant, wild type (rhesus rotavirus (RRV; G3 serotype), UniProt P12473 1-776, amine-specific Atto dye in some preparations (dye combinations varied)).
T2 construct: VP4, outer capsid spike protein of rhesus rotavirus (RRV; G3 serotype); recombinant, not cleaved by trypsin when added to DLPs; Recoated particles were treated with trypsin (cleavage to VP8* and VP5*) only after recoating; also called WT VP4; VP4 wt; source: baculovirus-infected insect cells, purified (AmSO4 precipitation, Phenyl HP, HiTrap Q, S200)
The description is as above. The following applies: both partners purified.

The text below walks through data of PMC4161437, “Structural Correlates of Rotavirus Cell Entry” (PLoS Pathogens, 2014).

B1: rhesus rotavirus (RRV) outer-layer glycoprotein VP7, recombinant, wild type (natural protein)
chain: QNYGINLPITGSMDTAYANSTQEETFLTSTLCLYYPTEAATEINDNSWKDTLSQLFLTKGWPTGSVYFKEYTDIASFSVDPQLYCDYNVVLMKYDATLQLDMSELADLILNEWLCNPMDITLYYYQQTDEANKWISMGSSCTIKVCPLNTQTLGIGCLTTDTATFEEVATAEKLVITDVVDGVNHKLDVTTATCTIRNCKKLGPRENVAVIQVGGSDVLDITADPTTAPQTERMMRINWKKWWQVFYTVVDYVNQIIQAMSKRSRSLNSAAFYYRI
modifications: amine-specific Atto dye in some preparations (dye combinations varied)
notes: VP7, outer capsid glycoprotein of rhesus rotavirus (RRV; G3 serotype); Ca2+-stabilized trimer; also called WT VP7; VP7 wt
On to B1, for which the binding result in assay [1] and in assay [2] was “binds” in each case.
